Here are results for 18 molecules from patent publication US7638295B2, “Assays for identifying modulators of the hydroxylation of ankyrin repeat proteins by 2-oxoglutarate dependent oxygenase and methods of using the same” (priority 2004, dated 2009).

For assay [1], the target named is T1, FIH (Homo sapiens, UniProt Q9NWT6).
T1 construct: made in house
In words: FIH assay: decarboxylation of radiolabelled 2OG stimulated by substrate. It is filed as biochemical. Conditions: for Activity + FIH (relative to synthetic HIF1alphaCAD): ankyrin peptide substrates, CAD standard peptide = 100; for % activity relative to GST HIF-1α 786-826: substrate incubated with FIH, ascorbate, 2OG, Fe, catalase, 50 mM Tris-HCl pH 7.5, 37° C., 20 minutes; for Stimulation of decarboxylation of 2OG by substrate: recombinant FIH (>95% pure) incubated with each peptide. As to the method: The peptides shown in Table 1 were tested as potential substrates with purified FIH. The proposed sites of asparaginyl hydroxylation are highlighted in the Table.
In addition p105 ARD and IkappaB-alpha were also assayed as substrates. The substrates were assayed for decarboxylation of 2OG using radiolabelled 2OG as reported in Hewitson et al., J. Biol. Chem. (2002) 277 26351-26355. FIH was incubated with […] of each substrate together with ascorbate, 2OG, Fe and catalase in 50 mM Tris-HCl, pH 7.5 at 37° C. for 20 minutes.
Highly purified (>95% pure) recombinant FIH was incubated individually with each of the p105, IkappaB-alpha and FEM-1 peptides as potential substrates using an assay that measures decarboxylation of 2OG. […] Mutation of the proposed asparaginyl residue to be hydroxylated by FIH in p105 ARD to an alanine residue led to a substantial decrease in 2OG turnover. Incubation of FIH with IkappaB-alpha under standard assay conditions also stimulated turnover to a similar extent as observed for p105 ARD (Table 2).

Assay [2] addresses T1, FIH. Put plainly: LC-MS analysis of peptide substrates after incubation with FIH. The format is biochemical. Conditions: after incubation with FIH under standard assay conditions. On the procedure: A Jupiter C4 HPLC column (15 cm×4.6 mm) was used to purify the substrate peptides following incubation with FIH using a linear gradient of 5-95% acetonitrile/0.05% formic acid at a flow rate of 1 ml/min. The eluate from the column was analysed by a MICROMASS™ ZMD quadrupole mass spectrometer in positive mode.
(§1) To check for direct peptide substrate hydroxylation, assay mixtures with each of the peptide substrates were analysed by both NMR and LC-MS.

For assay [3], the system named is 2-OG dependent oxygenases. Put plainly: Assays in which 3-fluoro 2-OG replaces 2-OG as co-substrate. The format is biochemical. As to conditions: compound replaces 2-OG under analogous conditions. From the text:
[drawing 5] where each R^1, which are the same or different, is as defined above; R^11 represents OH or R^10NH where R^10 is HO, R^1CO or HOOC(X)x wherein R^11 is as defined above, x is 0 or 1 and X is R^1R^1C wherein each R^1, which are the same or different, is as defined above; or R^10 is an amino acid residue H2N(R^1R^1C)CO— wherein each R^1, which are the same or different, is as defined above; n is 1 or 2 and R^12 is H or straight or branched C1 to C6 alkyl; or a salt thereof. Typically X is CH2 or CHOH. Another aspect of the invention concerns analogues of 2-OG that act as improved (relative to 2-OG) co-substrates for the 2-OG dependent oxygenases. Such a compound is 3-fluoro 2-OG.

Assay [4] deals with 2-OG oxygenases. As to conditions: no test described in this patent; cited from earlier work.
Assay [5] addresses T1, FIH. Put plainly: 2D-NMR of peptides after incubation with FIH. As to conditions: standard assay conditions. It is filed as biochemical. On the procedure: Both the FEM-1 and IkappaB-alpha peptides (2 mg) were incubated with FIH under standard assay conditions. Peptides were purified from the assay mixture using a Jupiter C4 HPLC column (15 cm×4.6 mm) with a linear gradient of 5-95% acetonitrile. Peptides were lyophilised and then redissolved in neat ^2H2O containing 1,4-dioxan as the internal chemical shift reference (^1H 3.750, ^13C 67.80 p.p.m.). NMR spectra were obtained using a Bruker Avance DRX500 equipped with an inverse-broadband pulsed-field gradient probe.
as §1

The target of assay [6] is T1, FIH. In words: Tryptic digest and MALDI-TOF mass spectrometry after incubation with FIH. As to conditions: incubated with FIH under standard assay conditions, then tryptic digestion; linear and reflectron mode. It is filed as biochemical. As to the method: For in-gel digests, gel pieces were incubated with […] in 20 mM ammonium bicarbonate and incubated at 37° C. for 16 hrs. For solution digests, after incubation with FIH under standard assay conditions, a 25 μM sample of substrate was removed from the assay, combined with 2.5 μM trypsin in 25 mM ammonium bicarbonate and incubated at room temperature for 8 hours.
Both in vitro and in vivo produced p105 samples were analysed using an Ettan™ MALDI-ToF Pro mass spectrometer in reflectron mode (Amersham Biosciences) with ANG III and hACTH peptides as internal standards. Tryptic fragments of in vitro produced IkappaB-alpha were analysed using a MALDI-TOF 2T mass spectrometer (MICROMASS™) in reflectron mode using Substance P, hACTH and insulin (B chain, oxidized) calibration standards.
Recombinant IκB-α was incubated with FIH under standard assay conditions followed by tryptic digestion. The resulting tryptic fragments were analysed using both linear and reflectron mode MALDI-TOF mass spectrometry.

T1 sequence (Q9NWT6 whole entry): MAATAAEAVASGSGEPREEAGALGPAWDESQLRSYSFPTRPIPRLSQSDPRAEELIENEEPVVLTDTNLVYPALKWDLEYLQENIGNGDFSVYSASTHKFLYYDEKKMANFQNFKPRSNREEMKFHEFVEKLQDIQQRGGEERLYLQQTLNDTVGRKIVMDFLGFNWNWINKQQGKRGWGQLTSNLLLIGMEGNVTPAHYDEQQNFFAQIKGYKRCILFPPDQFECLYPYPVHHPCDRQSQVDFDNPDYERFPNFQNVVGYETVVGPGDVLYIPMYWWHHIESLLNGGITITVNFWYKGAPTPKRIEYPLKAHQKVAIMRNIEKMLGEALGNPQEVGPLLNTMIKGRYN

In the case of “2-5A-d-R: fragment of 2-5A-d-R, VEVLKILLDEMGADVNACDN (SEQ ID NO: 16) (listed as Homo sapiens)”, the “Activity + FIH (relative to synthetic HIF1alphaCAD)” value in assay [1] is 27.8. Moreover, the “Hydroxylation of peptide observed by LC-MS analysis” value (from here on “Hydroxylation of peptide observed”) in assay [2] is “Yes”.
Consider `O=C(O)CC(F)C(=O)C(=O)O` (stereo not drawn) [3-fluoro 2-OG, 3-fluoro-2-oxoglutaric acid], for which, in assay [3], the “Level of asparagine hydroxylation as co-substrate compared with 2-OG” value is listed as “higher level of asparagine hydroxylation”.
`O=C(O)CC1CC(=O)N(O)C1=O` (stereo not drawn) [Is52, (1-hydroxy-2,5-dioxo-pyrrolidin-3-yl) acetic acid]: the “Activity (in words)” value in assay [4] was “highly active”.
“CAD: HIF C-terminal transactivation domain standard peptide DESGLPQLTSYDCEVNAPI (SEQ ID NO: 11) (listed as Homo sapiens) [reference compound]”: in assay [1], the “Activity + FIH (relative to synthetic HIF1alphaCAD)” value worked out at 100 and the “% activity relative to GST HIF-1α 786-826” value stood at 75%. For the same molecule, the “Hydroxylation of peptide observed” value in assay [2] is reported as “Yes”.
As to “FEM-1 21 mer: fragment of FEM-1, NALVTKLLLDCGAEVNAVDNE (SEQ ID NO: 3) (listed as Homo sapiens)”, in assay [1], the “Stimulation of decarboxylation of 2OG by substrate” value (“Stimulation” below) is “roughly equivalent to HIF-1α CAD” and the “% activity relative to GST HIF-1α 786-826” value turned out to be 89%. In addition, the “Hydroxylation of peptide observed” value in assay [2] is “hydroxylated”. For the same molecule, the “2D-NMR spectra of peptide after incubation with FIH” value in assay [5] is “consistent with asparaginyl hydroxylation”.
As for “FGIF: fragment of FGIF, NTRVASFLLQHDADINAQTK (SEQ ID NO: 20) (listed as Homo sapiens)”, the “Activity + FIH (relative to synthetic HIF1alphaCAD)” value in assay [1] was determined as 168. For the same molecule, the “Hydroxylation of peptide observed” value in assay [2] was “Yes”.
Take “GABPbeta: fragment of GABPbeta, HASIVEVLLKHGADVNAKDM (SEQ ID NO: 14) (listed as Homo sapiens)”: in assay [1], the “Activity + FIH (relative to synthetic HIF1alphaCAD)” value is reported as 107. Also, in assay [2], the “Hydroxylation of peptide observed” value is reported as “Yes”.
As for “GST HIF-1α 786-826: glutathione-S-transferase tagged fragment of the HIF transactivation domains (residues 786-826) [reference compound]”, the “% activity relative to GST HIF-1α 786-826” value in assay [1] is on record as 100%.
On to “Gankyrin/p28-II: fragment of Gankyrin/p28-II, RDEIVKALLGKGAQVNAVNQ (SEQ ID NO: 17) (listed as Homo sapiens)”, for which the “Activity + FIH (relative to synthetic HIF1alphaCAD)” value in assay [1] is reported as 116. Moreover, the “Hydroxylation of peptide observed” value in assay [2] is listed as “Yes”.
As for “IkBa 21 mer: fragment of IκB-α, YLGIVELLVSLGADVNAQEPC (SEQ ID NO: 1) (listed as Homo sapiens)”, in assay [1], the “Stimulation” value was “roughly equivalent to HIF-1α CAD” and the “% activity relative to GST HIF-1α 786-826” value is listed as 111%. Further, the “Hydroxylation of peptide observed” value in assay [2] is “hydroxylated”.
For the molecule “M110: fragment of M110, YTEVLKLLIQAGYDVNIKDY (SEQ ID NO: 19) (listed as Homo sapiens)”, in assay [1], the “Activity + FIH (relative to synthetic HIF1alphaCAD)” value is 122. For the same molecule, the “Hydroxylation of peptide observed” value in assay [2] was “Yes”.
Take “Myotrophin: fragment of Myotrophin, QLEILEFLLLKGADINAPDK (SEQ ID NO: 18) (listed as Homo sapiens)”: the “Activity + FIH (relative to synthetic HIF1alphaCAD)” value in assay [1] was found to be 154. Moreover, the “Hydroxylation of peptide observed” value in assay [2] is on record as “Yes”.
The matching figures for “Tankyrase 1/2: fragment of Tankyrase, NLEVAEYLLEHGADVNAQDK (SEQ ID NO: 15) (listed as Homo sapiens)”: 107 and “Yes”.
In the same order, the values of “p19-INK-4d: fragment of P19-INK4d, FLDTLKVLVEHGADVNVPDG (SEQ ID NO: 13) (listed as Homo sapiens)” are 124 and “Yes”.
As for “p105 21 mer: fragment of p105, SLPCLLLLVAAGADVNAQEQK (SEQ ID NO: 2) (listed as Homo sapiens)”, in assay [1], the “Stimulation” value is “roughly equivalent to HIF-1α CAD” and the “% activity relative to GST HIF-1α 786-826” value came to 100%. In addition, the “2D-NMR spectra of peptide after incubation with FIH” value in assay [5] is reported as “consistent with asparaginyl hydroxylation”.

B1: IkappaB-alpha: recombinant IκB-α protein expressed in Escherichia coli from iκB-α/pGEX-2T construct (protein, UniProt P25963 1-317, looked up)
NF-kappa-B inhibitor alpha: MFQAAERPQEWAMEGPRDGLKKERLLDDRHDSGLDSMKDEEYEQMVKELQEIRLEPQEVPRGSEPWKQQLTEDGDSFLHLAIIHEEKALTMEVIRQVKGDLAFLNFQNNLQQTPLHLAVITNQPEIAEALLGAGCDPELRDFRGNTPLHLACEQGCLASVGVLTQSCTTPHLHSILKATNYNGHTCLHLASIHGYLGIVELLVSLGADVNAQEPCNGRTALHLAVDLQNPDLVSLLLKCGADVNRVTYQGYSPYQLTWGRPSTRIQQQLGQLTLENLQMLPESEDEESYDTESEFTEFTEDELPYDDCVFGGQRLTL
Turning to B1, the “% activity relative to GST HIF-1α 786-826” value in assay [1] was 144%. Besides, the “Hydroxylation of tryptic fragment (MALDI-TOF)” value in assay [6] is given as “hydroxylation of the fragment”.

B2: GST p105 ARD: ankyrin repeat domain of p105 (residues 537-809) downstream of glutathione S-transferase (protein)
chain: AVQDENGDSVLHLAIIHLHSQLVRDLLEVTSGLISDDIINMRNDLYQTPLHLAVITKQEDVVEDLLRAGADLSLLDRLGNSVLHLAAKEGHDKVLSILLKHKKAALLLDHPNGDGLNAIHLAMMSNSLPCLLLLVAAGADVNAQEQKSGRTALHLAVEHDNISLAGCLLLEGDAHVDSTTYDGTTPLHIAAGRGSTRLAALLKAAGADPLVENFEPLYDLDDSWENAGEDEGVVPGTTPLDMATSWQVFDILNGKPYEPEFTSDDLLAQGDM
modifications: left off: a dimerising Fc or GST
notes: ankyrin repeat domain of p105 (residues 537-809) downstream of glutathione S-transferase
Take B2: the “% activity relative to GST HIF-1α 786-826” value in assay [1] is recorded as 129%.

B3: p105 ARD: ankyrin repeat domain of p105, amino acid residues 537-809 (SEQ ID NO: 22), GST tag cleaved (protein, listed as Homo sapiens)
chain: TAVQDENGDSVLHLAIIHLHSQLVRDLLEVTSGLISDDIINMRNDLYQTPLHLAVITKQEDVVEDLLRAGADLSLLDRLGNSVLHLAAKEGHDKVLSILLKHKKAALLLDHPNGDGLNAIHLAMMSNSLPCLLLLVAAGADVNAQEQKSGRTALHLAVEHDNISLAGCLLLEGDAHVDSTTYDGTTPLHIAAGRGSTRLAALLKAAGADPLVENFEPLYDLDDSWENAGEDEGVVPGTTPLDMATSWQVFDILNGKPYEPEFTSDDLLAQGDM
As to B3, the “% activity relative to GST HIF-1α 786-826” value in assay [1] was found to be 164%.
